Measured values from patent US20230012273A1 (Boehringer Ingelheim, published 2023).

T1: cynomolgus SIRPα (EGM_02252) extracellular domain + His-tag (cynomolgus monkey)
T1 construct: SPR analyte; also called CySIRPα EGM_02252; cynoSIRPα; not shown: His-tag
T1 chain: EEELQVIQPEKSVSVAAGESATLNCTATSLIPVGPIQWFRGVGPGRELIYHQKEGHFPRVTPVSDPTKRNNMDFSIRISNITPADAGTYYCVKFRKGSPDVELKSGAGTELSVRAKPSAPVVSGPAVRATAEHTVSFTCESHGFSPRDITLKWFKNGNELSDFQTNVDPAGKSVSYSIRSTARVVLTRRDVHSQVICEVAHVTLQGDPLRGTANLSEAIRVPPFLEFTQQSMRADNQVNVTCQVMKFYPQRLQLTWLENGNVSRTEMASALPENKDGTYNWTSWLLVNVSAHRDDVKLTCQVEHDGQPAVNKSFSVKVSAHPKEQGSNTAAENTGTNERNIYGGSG

T2: cynomolgus SIRPβ1 (XP_005568598) extracellular domain + His-tag (cynomolgus monkey)
T2 construct: SPR analyte; also called Cyno SIRPβ1 XP_005568598; cynoSIRPβ1; not shown: His-tag
T2 chain: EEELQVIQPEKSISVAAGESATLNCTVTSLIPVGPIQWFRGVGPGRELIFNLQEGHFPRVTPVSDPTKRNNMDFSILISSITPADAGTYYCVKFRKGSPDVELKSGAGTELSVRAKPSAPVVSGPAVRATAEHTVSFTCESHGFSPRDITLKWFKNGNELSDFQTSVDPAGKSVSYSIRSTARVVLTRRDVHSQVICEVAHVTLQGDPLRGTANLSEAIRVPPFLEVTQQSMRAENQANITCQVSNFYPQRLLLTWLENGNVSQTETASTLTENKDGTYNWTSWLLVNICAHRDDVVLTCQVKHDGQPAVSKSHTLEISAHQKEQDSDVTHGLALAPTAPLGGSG

T3: cynomolgus SIRPγ (XP_005568591) extracellular domain + His-tag (cynomolgus monkey, UniProt Q9P1W8 29-359 (human entry))
T3 construct: SPR analyte; also called Cyno SIRPγ XP_005568591; cynoSIRPγ; not shown: His-tag
T3 chain: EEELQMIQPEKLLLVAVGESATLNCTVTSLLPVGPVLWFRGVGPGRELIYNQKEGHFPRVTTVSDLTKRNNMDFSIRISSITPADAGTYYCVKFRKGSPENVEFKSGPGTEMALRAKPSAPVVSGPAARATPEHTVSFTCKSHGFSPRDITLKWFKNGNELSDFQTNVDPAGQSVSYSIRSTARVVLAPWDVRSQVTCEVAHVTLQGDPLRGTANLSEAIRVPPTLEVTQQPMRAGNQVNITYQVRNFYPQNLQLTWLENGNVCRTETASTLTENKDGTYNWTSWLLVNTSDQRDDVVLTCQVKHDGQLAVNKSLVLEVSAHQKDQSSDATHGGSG

T4: cynomolgus SIRPβ1v3 (XP_005568593) extracellular domain + His-tag (cynomolgus monkey)
T4 construct: SPR analyte; also called Cyno SIRPβ1v3 XP_005568593; cynoSIRPβ1v3; not shown: His-tag
T4 chain: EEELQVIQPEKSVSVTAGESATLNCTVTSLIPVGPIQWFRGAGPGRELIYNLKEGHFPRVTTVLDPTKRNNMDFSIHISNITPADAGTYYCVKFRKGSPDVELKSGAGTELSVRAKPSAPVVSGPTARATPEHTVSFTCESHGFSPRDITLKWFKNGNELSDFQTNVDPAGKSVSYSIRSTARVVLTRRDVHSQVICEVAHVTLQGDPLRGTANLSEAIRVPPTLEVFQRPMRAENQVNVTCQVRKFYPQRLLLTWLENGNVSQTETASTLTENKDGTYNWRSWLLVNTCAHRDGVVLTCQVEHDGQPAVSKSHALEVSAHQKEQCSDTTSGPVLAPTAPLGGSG


How the values were obtained:
[1] = biological target: T5, Human SIRPαV1 (NP_542970.1), Extracellular Domain + His-Tag (human, UniProt P78324 31-373); test: SPR, antibody captured on Protein A/G, ECD-His analyte, 1:1 fit
T5 construct: also called huSIRPαV1; hSIRPαV1; not shown: His-Tag
Experimental: (§1) The binding kinetics of anti-SIRPα antibodies to various SIRPα analytes are determined by surface plasmon resonance (SPR) using a Biacore 8K+(Cytiva). 1×HBS-EP+(Cytiva) is used as running buffer and for all the dilutions unless stated otherwise. The Series S CM5 sensorchip is activated with a 1:1 mixture of 0.1 M NHS (N-hydroxysuccinimide) and 0.4 M EDC (1-Ethyl-3-(3-dimethylaminopropyl) carbodiimide hydrochloride) for 420 seconds at a flow rate of 10 μl/min and immobilized with Protein A/G (Thermo Scientific, 10 μg/ml in 10 mM acetate pH 4.5) for 420 seconds at a flowrate of 10 μl/min resulting in approximately 3000 RU of Protein A/G on the surface. The sensorchip is then deactivated with 1 M ethanolamine HCl pH 8.5 for 420 seconds at a flowrate of 10 μl/min.
(§2) Antibodies (approximately 1 ug/ml) are captured on the Protein A/G surface for 60 seconds at a flowrate of 10 μl/min resulting in capture levels of approximately 240 RU. Dilutions of each SIRP protein (Extracellular Domain+His-Tag, with the concentrations as indicated) are injected as analytes over the captured antibody for 300 seconds of association at a flowrate of 30 μl/min, followed by a dissociation for 600 seconds.
(§3) The above procedures are used to measure binding properties of antibodies of the present disclosure. For each analyte used, the highest concentration was as indicated in Example 3 (see Table 36).

[2] = biological target: T6, Human SIRPαV2 (CAA71403.1), Extracellular Domain + His-Tag (human, UniProt P78324 31-373); test: as above
T6 construct: also called huSIRPαV2; hSIRPαV2; not shown: His-Tag
Experimental: as §1, §2, §3

[3] = biological target: T1, cynomolgus SIRPα (EGM_02252) …; test: SPR
Experimental: (§4) The binding affinity of anti-SIRPα antibodies to the various SIRPα analytes is determined by surface plasmon resonance (SPR) using a ProteOn XPR36 (Bio-Rad). The running buffer for this experiment and all dilutions (except where stated) are done in 1×HBS-EP+. […] The sensorchip is deactivated with 1M ethanolamine HCl for 420 sec at a flowrate of 10 μl/min.
(§5) The analyte is injected over the captured antibody for 300 sec at a flowrate of 30 μl/min. The dissociation is done for 600 sec. Two-fold serial dilutions of each SIRP protein (Extracellular Domain+His-Tag) are injected as analyte with the highest concentrations indicated in table 36 below.

[4] = biological target: T2, cynomolgus SIRPβ1 (XP_005568598) …; test: SPR
Experimental: as §4, §5

[5] = biological target: T3, cynomolgus SIRPγ (XP_005568591) …; test: SPR
Experimental: as §4, §5

[6] = biological target: T4, cynomolgus SIRPβ1v3 (XP_005568593) …; test: SPR, antibody captured, ECD-His analyte
Experimental: as §4, §5

[7] = biological target: T7, human SIRPαV1 extracellular domain + His-tag (NP_542970.1) (human, UniProt P78324 31-373); test: SPR, Ab captured, ECD-His analyte
T7 construct: also called hSIRPαV1; HuSIRPαV1
Experimental: as §4, §5

[8] = biological target: T8, human SIRPαV2 extracellular domain + His-tag (CAA71403.1) (human, UniProt P78324 31-373); test: SPR, Ab captured, ECD-His analyte
T8 construct: also called hSIRPαV2; HuSIRPαV2
Experimental: as §4, §5

[9] = biological target: T9, human SIRPγ extracellular domain + His-tag (NP_061026.2) (human, UniProt Q9P1W8 29-360); test: SPR, Ab captured, ECD-His analyte
T9 construct: also called hSIRPγ; HuSIRPγ
Experimental: as §4, §5

T8 sequence (P78324 other isoform, or with tags, fused parts or gaps): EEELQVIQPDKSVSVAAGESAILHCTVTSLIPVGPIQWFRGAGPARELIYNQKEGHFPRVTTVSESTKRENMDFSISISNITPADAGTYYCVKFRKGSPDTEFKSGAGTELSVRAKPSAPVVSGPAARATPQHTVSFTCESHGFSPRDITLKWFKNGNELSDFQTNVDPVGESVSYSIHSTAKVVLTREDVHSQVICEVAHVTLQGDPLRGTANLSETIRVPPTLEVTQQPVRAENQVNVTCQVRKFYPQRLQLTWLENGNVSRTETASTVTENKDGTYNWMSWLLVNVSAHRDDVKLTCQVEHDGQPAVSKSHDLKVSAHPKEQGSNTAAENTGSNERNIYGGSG
T9 sequence (Q9P1W8 29-360): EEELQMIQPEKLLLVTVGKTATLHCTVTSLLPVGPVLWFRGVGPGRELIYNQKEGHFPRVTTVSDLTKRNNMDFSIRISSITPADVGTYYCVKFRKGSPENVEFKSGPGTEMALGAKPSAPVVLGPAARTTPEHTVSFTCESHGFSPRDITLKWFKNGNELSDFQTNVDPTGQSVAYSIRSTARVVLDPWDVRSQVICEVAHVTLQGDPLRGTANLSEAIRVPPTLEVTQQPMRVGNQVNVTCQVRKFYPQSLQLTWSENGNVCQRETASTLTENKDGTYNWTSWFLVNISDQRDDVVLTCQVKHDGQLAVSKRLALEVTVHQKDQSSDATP
T7 sequence (P78324 other isoform, or with tags, fused parts or gaps): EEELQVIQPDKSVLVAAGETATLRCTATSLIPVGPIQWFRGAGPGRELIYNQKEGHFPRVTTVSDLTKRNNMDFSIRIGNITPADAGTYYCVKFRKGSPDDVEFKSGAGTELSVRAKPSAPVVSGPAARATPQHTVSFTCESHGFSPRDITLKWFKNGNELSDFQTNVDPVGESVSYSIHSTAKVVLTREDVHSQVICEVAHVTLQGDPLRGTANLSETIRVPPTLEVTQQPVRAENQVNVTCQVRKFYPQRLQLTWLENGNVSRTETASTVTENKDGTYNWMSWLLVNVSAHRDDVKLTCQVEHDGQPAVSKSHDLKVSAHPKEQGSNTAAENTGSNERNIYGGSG

Kd [7] [nM] | Kd [8] [nM] | binding result [9] | Binder | further results
– | – | – | Antibody E (antibody, human IgG1, kappa, L234A L235A) heavy: not shown light: DIVMTQSPLSLPVTPGEPASISCKSSQSLLYSNGYNYLDWYLQRPGQSPQLLIYLGSNRASGVPDRFSGSGSGTDFTLKISRVEAEDVGVFYCMQALQTPLTFGGGTKVEIKRTVAAPSVFIFPPSDEQLKSGTASVVCLLNNFYPREAKVQWKVDNALQSGNSQESVTEQDSKDSTYSLSSTLTLSKADYEKHKVYACEVTHQGLSSPVTKSFNRGEC | Kd [1]: 0.43 nM; Kd [2]: 0.33 nM
– | – | – | Antibody E1 (antibody, human IgG1, kappa, L234A L235A, V domains shown) VH: QVQLQESGPGLVRPSETLSLTCTVSGGSIRNYYWSWIRQPPGKGLEWIGFIYYNGRTFYNPSLKSRVTISLDMSINQFSLKMTSVTAADTAVYYCARVRAYSGIGLDGTDVWGQGTTVTVSS VL: DIVMTQSPLSLPVTPGEPASISCKSSQSLLYSNGYAYLDWYLQRPGQSPQLLIYQGSNRASGVPDRFSGSGSGTDFTLKISRVEAEDVGVFYCMQALQTPLTFGGGTKVEIKR [Antibody E1, listing 1 of 2 here] | binding result [3]: no binding (tested: 1000 nM); binding result [4]: no binding (tested: 1000 nM); binding result [5]: no binding (tested: 1000 nM); Kd [6]: 10.8 nM
– | – | – | Antibody E2 (antibody, human IgG1, kappa, L234A L235A, V domains shown) VH: QVQLQESGPGLVRPSETLSLTCTVSGGSIRNYYWSWIRQPPGKGLEWIGFIYYNGRTFYNPSLKSRVTISLDMSINQFSLKMTSVTAADTAVYYCARVRAYSGIGLDGTDVWGQGTTVTVSS VL: DIVMTQSPLSLPVTPGEPASISCKSSQSLLYSNGYAYLDWYLQRPGQSPQLLIYLGSNRASGVPDRFSGSGSGTDFTLKISRVEAEDVGVYYCMQALQTPLTFGGGTKVEIKR | binding result [3]: no binding (tested: 1000 nM); binding result [4]: no binding (tested: 1000 nM); binding result [5]: no binding (tested: 1000 nM); Kd [6]: 12.4 nM
0.723 | 0.63 | no binding (tested: 1000 nM) | Antibody E1 (antibody, human IgG1, kappa, L234A L235A, V domains shown) VH: QVQLQESGPGLVRPSETLSLTCTVSGGSIRNYYWSWIRQPPGKGLEWIGFIYYNGRTFYNPSLKSRVTISLDMSINQFSLKMTSVTAADTAVYYCARVRAYSGIGLDGTDVWGQGTTVTVSS VL: DIVMTQSPLSLPVTPGEPASISCKSSQSLLYSNGYAYLDWYLQRPGQSPQLLIYQGSNRASGVPDRFSGSGSGTDFTLKISRVEAEDVGVFYCMQALQTPLTFGGGTKVEIKR [Antibody E1, listing 2 of 2 here] | –
1.23 | 1.2 | no binding (tested: 1000 nM) | Antibody E10 (antibody, human IgG1, kappa, L234A L235A, V domains shown) VH: QVQLQESGPGLVRPSETLSLTCTVSGGSIRNYYWSWIRQPPGKGLEWIGFIYYNGRTFYNPSLKSRVTISLDTSKNQFSLKMTSVTAADTAVYYCARVRAYSGIGLDGTDVWGQGTTVTVSS VL: DIVMTQSPLSLPVTPGEPASISCKSSQSLLYSNGYAYLDWYLQRPGQSPQLLIYLGSNRASGVPDRFSGSGSGTDFTLKISRVEAEDVGVYYCMQALQTPLTFGGGTKVEIKR | –
1.41 | 0.568 | no binding (tested: 1000 nM) | Antibody E11 (antibody, human IgG1, kappa, L234A L235A, V domains shown) VH: QVQLQESGPGLVRPSETLSLTCTVSGGSIRNYYWSWIRQPPGKGLEWMGFIYDNGRTFYNPSLKSRVTISLDMSMNQFSLKMTSVTAADTAVYYCARVRAYSGIGLDGTDVWGQGTTVTVSS VL: DIVMTQSPLSLPVTPGEPASISCKSSQSLLYSNGYAYLDWYLQRPGQSPQLLIYLGSNRASGVPDRFSGSGSGTDFTLKISRVEAEDVGVYYCMQALQTPLTFGGGTKVEIKR | –
0.964 | 0.775 | no binding (tested: 1000 nM) | Antibody E3 (antibody, human IgG1, kappa, L234A L235A, V domains shown) VH: QVQLQESGPGLVRPSETLSLTCTVSGGSIRNYYWSWIRQPPGKGLEWIGFIYYNGRTFYNPSLKSRVTISLDMSKNQFSLKMTSVTAADTAVYYCARVRAYSGIGLDGTDVWGQGTTVTVSS VL: DIVMTQSPLSLPVTPGEPASISCKSSQSLLYSNGYAYLDWYLQRPGQSPQLLIYQGSNRASGVPDRFSGSGSGTDFTLKISRVEAEDVGVFYCMQALQTPLTFGGGTKVEIKR | –
2.15 | 1.93 | no binding (tested: 1000 nM) | Antibody E16 (antibody, human IgG1, kappa, L234A L235A, V domains shown) VH: QVQLQESGPGLVRPSETLSLTCTVSGGSIRNYYWSWIRQPPGKGLEWIGFIYYNGRTFYNPSLKSRVTISLDTSKNQFSLKMTSVTAADTAVYYCARVRAYSGIGLDGTDVWGQGTTVTVSS VL: DIVMTQSPLSLPVTPGEPASISCKSSQSLLYSNAYNYLDWYLQRPGQSPQLLIYLGSNRASGVPDRFSGSGSGTDFTLKISRVEAEDVGVYYCMQALQTPLTFGGGTKVEIKR | –
0.988 | 0.824 | no binding (tested: 1000 nM) | Antibody E4 (antibody, human IgG1, kappa, L234A L235A, V domains shown) VH: QVQLQESGPGLVRPSETLSLTCTVSGGSIRNYYWSWIRQPPGKGLEWIGFIYYNGRTFYNPSLKSRVTISLDMSKNQFSLKMTSVTAADTAVYYCARVRAYSGIGLDGTDVWGQGTTVTVSS VL: DIVMTQSPLSLPVTPGEPASISCKSSQSLLYSNGYAYLDWYLQRPGQSPQLLIYLGSNRASGVPDRFSGSGSGTDFTLKISRVEAEDVGVYYCMQALQTPLTFGGGTKVEIKR | –
